From US20250025478A1 (published 2025)

Tests used:
RNF213-TurboID = target: T1, RNF213-TurboID (Homo sapiens (Human), UniProt Q63HN8 1-5207); experiment: TurboID proximity biotinylation, streptavidin recovery, MS, SAINT express (FIG. 2B)
T1 construct: Recombined into HeLa FlpIn-TRex RNF213-KO cells; proximity-labelling bait; also called C-Turbo; 3×-FLAG-RNF213-TurboID; not shown: 3×-FLAG tag; TurboID biotin ligase at the C-terminus
Procedure: RNF213-interacting proteins were identified to evaluate how RNF213 regulates hypoxia sensitivity (FIG. 2A). TurboID-RNF213 (“N-Turbo”), RNF213-TurboID (“C-Turbo”), or TurboID alone (Control Turbo) were recombined into HeLa FlpIn-TRex RNF213-KO cells. These cells were labelled with biotin for 10 min., and biotinylated proteins were recovered on streptavidin, digested with trypsin, and analyzed by MS (FIG. 2A). Proteins were ranked as potential binding partners by using the SAINT express algorithm³⁶ Immunoblotting (FIG. 9A) and silver staining (FIG. 9B) confirmed that similar amounts of each sample were submitted for analysis. Relatively few proteins labelled by N-Turbo were labelled to an extent greater than their labeling by Control-Turbo (FIG. 9C). […] Among the other top candidates were the major K63-deubiquitinase and NF-κB regulator CYLD and its interacting protein SPATA2 (FIG. 2B, orange-colored arrows). […] Other top C-Turbo interactors included proteins involved in VEGF signaling, which is induced in hypoxia (FLII, MYOF^{39,40}), inflammation and atherosclerosis (MAP4K4, SPTLC1^{41,42}), lipotoxicity (SPTLC1, ALDH1B1^{43,44}), ischemia response (CPEB4⁴⁵), and stroke (SARS2⁴⁶). Top N-Turbo interactors included CYP51A1, which plays a crucial role in cholesterol metabolism and atherosclerosis⁴⁷.
Cells were cultured in standard media but with 10% tetracycline (Tet)-free FBS (Clonetech) for at least 1 week. Tet-free/biotin-free FBS was generated by incubating Tet-free FBS with sterile streptavidin beads overnight followed by centrifugation to remove the beads. N-Turbo, C-Turbo, and Turbo proteins were induced by adding 1 μg/ml Dox to cells for 36 hours. For the last ten min. of incubation, 500 μM of biotin was added to the medium.

3×-FLAG-RNF213 = target: T2, 3×-FLAG-RNF213 (Homo sapiens (Human), UniProt Q63HN8 1-5207, phosphotyrosine at Y1275 (found by MS in cells; phosphorylated by ABL1 in vitro)); experiment: co-immunoprecipitation/immunoblot (FIG. 2D)
T2 construct: Expressed from pcDNA5-3x-FLAG-RNF213; also called WT-RNF213; wild type RNF213; not shown: 3×-FLAG tag

TurboID-RNF213 = target: T3, TurboID-RNF213 (Homo sapiens (Human), UniProt Q63HN8 1-5207); experiment: TurboID proximity biotinylation, streptavidin recovery, MS, SAINT express (FIG. 9C)
T3 construct: Recombined into HeLa FlpIn-TRex RNF213-KO cells; proximity-labelling bait; also called N-Turbo; not shown: TurboID biotin ligase at the N-terminus
Procedure: RNF213-interacting proteins were identified to evaluate how RNF213 regulates hypoxia sensitivity (FIG. 2A). TurboID-RNF213 (“N-Turbo”), RNF213-TurboID (“C-Turbo”), or TurboID alone (Control Turbo) were recombined into HeLa FlpIn-TRex RNF213-KO cells. These cells were labelled with biotin for 10 min., and biotinylated proteins were recovered on streptavidin, digested with trypsin, and analyzed by MS (FIG. 2A). Proteins were ranked as potential binding partners by using the SAINT express algorithm³⁶ Immunoblotting (FIG. 9A) and silver staining (FIG. 9B) confirmed that similar amounts of each sample were submitted for analysis. Relatively few proteins labelled by N-Turbo were labelled to an extent greater than their labeling by Control-Turbo (FIG. 9C). […] Among the other top candidates were the major K63-deubiquitinase and NF-κB regulator CYLD and its interacting protein SPATA2 (FIG. 2B, orange-colored arrows). […] Other top C-Turbo interactors included proteins involved in VEGF signaling, which is induced in hypoxia (FLII, MYOF^{39,40}), inflammation and atherosclerosis (MAP4K4, SPTLC1^{41,42}), lipotoxicity (SPTLC1, ALDH1B1^{43,44}), ischemia response (CPEB4⁴⁵), and stroke (SARS2⁴⁶). Top N-Turbo interactors included CYP51A1, which plays a crucial role in cholesterol metabolism and atherosclerosis⁴⁷. […]

T2 sequence (Q63HN8 whole entry N1045D): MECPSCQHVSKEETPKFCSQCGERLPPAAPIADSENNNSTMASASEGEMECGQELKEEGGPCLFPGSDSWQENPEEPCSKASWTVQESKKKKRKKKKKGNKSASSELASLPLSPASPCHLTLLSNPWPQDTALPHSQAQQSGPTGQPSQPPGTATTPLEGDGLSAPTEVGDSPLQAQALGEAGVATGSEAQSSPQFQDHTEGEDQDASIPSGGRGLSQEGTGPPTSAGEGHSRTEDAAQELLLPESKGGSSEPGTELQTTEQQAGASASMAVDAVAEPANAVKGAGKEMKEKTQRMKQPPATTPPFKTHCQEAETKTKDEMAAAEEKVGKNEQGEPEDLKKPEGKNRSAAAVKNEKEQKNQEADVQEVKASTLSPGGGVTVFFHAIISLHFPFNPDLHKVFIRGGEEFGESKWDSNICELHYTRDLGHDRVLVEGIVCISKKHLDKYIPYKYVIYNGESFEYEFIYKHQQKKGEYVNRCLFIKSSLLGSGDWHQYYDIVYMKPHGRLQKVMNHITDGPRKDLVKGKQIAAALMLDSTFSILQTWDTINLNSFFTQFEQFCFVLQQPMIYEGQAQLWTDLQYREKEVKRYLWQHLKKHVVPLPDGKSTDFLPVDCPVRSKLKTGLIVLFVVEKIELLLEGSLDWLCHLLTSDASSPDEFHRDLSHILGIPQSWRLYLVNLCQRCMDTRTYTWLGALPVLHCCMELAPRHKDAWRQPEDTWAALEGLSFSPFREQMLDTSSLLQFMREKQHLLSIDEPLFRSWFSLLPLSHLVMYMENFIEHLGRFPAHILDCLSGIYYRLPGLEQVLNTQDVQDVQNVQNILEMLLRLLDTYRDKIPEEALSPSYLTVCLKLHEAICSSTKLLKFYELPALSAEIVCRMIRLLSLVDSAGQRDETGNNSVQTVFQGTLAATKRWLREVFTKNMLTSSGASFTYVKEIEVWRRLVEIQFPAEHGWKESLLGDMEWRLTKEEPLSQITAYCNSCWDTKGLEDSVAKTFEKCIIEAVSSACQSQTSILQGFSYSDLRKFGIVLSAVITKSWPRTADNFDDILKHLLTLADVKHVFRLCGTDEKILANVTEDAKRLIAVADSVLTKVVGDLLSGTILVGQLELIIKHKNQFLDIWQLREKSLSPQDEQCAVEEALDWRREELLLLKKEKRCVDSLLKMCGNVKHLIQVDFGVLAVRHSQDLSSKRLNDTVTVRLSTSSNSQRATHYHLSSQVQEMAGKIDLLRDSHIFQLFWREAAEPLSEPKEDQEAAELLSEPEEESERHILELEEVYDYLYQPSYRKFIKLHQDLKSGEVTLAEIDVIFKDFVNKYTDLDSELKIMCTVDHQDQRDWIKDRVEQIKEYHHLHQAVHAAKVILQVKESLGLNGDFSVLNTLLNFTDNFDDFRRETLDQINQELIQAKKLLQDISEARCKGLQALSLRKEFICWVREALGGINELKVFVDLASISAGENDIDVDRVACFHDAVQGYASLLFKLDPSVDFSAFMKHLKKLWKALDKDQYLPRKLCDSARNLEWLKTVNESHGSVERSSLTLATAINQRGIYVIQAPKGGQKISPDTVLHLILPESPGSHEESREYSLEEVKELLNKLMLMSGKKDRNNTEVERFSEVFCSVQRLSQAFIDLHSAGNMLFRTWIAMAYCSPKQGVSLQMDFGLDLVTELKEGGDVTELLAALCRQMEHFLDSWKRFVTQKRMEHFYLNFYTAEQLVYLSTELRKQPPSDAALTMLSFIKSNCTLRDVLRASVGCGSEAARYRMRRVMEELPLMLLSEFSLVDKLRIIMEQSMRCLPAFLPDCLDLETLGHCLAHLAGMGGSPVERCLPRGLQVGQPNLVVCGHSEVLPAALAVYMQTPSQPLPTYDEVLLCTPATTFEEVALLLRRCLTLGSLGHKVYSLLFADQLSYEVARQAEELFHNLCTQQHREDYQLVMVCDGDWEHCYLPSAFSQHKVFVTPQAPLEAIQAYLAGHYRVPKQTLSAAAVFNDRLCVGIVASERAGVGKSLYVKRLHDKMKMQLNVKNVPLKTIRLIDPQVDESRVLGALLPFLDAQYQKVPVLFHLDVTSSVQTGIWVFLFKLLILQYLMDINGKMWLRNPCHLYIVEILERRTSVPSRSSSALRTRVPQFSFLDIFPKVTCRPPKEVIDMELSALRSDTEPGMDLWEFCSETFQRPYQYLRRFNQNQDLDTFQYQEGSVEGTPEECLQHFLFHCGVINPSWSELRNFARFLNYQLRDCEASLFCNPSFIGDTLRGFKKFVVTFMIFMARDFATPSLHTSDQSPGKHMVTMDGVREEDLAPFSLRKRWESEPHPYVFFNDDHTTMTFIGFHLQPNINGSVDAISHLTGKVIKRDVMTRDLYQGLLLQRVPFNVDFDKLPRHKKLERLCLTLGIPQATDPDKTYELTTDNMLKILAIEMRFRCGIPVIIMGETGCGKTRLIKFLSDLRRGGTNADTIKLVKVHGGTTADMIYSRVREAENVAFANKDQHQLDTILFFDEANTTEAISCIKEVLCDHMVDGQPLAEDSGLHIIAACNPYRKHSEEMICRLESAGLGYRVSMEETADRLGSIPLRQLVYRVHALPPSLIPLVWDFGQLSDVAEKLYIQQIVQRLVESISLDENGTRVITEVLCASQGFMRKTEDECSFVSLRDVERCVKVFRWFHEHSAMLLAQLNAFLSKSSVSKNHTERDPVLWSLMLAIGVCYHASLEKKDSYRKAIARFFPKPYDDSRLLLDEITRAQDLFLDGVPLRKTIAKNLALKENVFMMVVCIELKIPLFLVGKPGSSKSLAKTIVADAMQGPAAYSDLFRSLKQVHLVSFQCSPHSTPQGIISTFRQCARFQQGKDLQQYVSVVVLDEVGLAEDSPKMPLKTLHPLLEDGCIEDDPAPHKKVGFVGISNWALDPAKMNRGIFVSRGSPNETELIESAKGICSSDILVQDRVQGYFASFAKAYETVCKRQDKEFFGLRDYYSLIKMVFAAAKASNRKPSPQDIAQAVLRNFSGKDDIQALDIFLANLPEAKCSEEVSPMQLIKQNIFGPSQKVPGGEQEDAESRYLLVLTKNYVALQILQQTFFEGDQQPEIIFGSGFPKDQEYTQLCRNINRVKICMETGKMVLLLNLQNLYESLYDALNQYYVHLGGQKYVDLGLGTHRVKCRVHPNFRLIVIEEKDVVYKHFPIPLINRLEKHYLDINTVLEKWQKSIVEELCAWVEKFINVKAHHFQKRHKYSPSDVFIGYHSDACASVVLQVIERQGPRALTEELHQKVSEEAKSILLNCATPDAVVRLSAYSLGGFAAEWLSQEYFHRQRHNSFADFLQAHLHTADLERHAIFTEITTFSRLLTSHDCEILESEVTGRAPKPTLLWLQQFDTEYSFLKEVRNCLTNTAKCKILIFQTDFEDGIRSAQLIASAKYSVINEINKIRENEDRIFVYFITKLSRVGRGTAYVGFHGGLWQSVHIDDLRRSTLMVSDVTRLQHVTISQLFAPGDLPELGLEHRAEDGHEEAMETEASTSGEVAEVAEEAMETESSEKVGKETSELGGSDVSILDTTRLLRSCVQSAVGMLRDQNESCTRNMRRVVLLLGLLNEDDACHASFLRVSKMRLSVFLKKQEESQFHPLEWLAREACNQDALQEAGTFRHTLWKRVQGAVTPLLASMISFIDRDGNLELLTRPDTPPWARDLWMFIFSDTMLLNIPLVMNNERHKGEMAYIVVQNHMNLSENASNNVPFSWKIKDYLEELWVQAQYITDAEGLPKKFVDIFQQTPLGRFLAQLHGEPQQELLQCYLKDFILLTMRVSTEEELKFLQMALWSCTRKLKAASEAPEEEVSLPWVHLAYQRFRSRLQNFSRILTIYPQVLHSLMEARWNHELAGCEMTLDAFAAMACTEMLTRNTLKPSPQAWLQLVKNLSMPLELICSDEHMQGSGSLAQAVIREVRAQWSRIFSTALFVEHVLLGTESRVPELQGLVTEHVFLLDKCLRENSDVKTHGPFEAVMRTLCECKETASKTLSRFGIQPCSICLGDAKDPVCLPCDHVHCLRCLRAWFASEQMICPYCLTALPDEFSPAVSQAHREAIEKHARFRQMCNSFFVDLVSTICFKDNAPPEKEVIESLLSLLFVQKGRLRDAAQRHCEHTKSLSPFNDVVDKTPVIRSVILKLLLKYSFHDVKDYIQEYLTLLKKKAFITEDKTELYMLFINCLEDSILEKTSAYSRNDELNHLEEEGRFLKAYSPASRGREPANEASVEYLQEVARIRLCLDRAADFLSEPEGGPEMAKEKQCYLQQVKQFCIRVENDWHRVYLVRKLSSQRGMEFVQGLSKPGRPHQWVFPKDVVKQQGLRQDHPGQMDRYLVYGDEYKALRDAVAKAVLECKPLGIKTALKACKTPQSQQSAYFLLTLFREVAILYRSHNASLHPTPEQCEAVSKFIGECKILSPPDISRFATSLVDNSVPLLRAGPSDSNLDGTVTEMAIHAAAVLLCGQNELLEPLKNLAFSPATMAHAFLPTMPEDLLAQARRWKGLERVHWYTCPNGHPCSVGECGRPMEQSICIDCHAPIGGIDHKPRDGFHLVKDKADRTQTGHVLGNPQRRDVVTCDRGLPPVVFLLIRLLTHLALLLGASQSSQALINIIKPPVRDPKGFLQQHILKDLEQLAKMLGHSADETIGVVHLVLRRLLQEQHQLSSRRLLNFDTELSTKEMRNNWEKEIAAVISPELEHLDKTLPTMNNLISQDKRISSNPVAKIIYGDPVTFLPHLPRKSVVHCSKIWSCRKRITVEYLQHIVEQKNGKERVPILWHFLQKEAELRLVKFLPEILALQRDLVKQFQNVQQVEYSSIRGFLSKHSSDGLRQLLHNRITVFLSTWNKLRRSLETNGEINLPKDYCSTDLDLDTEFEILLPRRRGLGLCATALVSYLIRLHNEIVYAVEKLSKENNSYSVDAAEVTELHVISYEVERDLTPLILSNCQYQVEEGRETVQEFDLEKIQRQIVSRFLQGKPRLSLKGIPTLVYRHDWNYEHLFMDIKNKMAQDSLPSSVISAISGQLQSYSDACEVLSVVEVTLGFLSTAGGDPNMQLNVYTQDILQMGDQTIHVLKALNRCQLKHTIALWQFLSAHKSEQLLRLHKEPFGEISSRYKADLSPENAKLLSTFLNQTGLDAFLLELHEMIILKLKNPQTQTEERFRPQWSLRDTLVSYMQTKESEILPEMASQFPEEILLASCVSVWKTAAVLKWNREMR

| Binder | binding result (RNF213-TurboID) | binding result (3×-FLAG-RNF213) | binding result (TurboID-RNF213) |
| --- | --- | --- | --- |
| SPATA2 (other, human, UniProt Q9UM82 1-520, looked up, Endogenous protein in cell lysates) MGKPSSMDTKFKDDLFRKYVQFHESKVDTTTSRQRPGSDECLRVAASTLLSLHKVDPFYRFRLIQFYEVVESSLRSLSSSSLRALHGAFSMLETVGINLFLYPWKKEFRSIKTYTGPFVYYVKSTLLEEDIRAILSCMGYTPELGTAYKLRELVETLQVKMVSFELFLAKVECEQMLEIHSQVKDKGYSELDIVSERKSSAEDVRGCSDALRRRAEGREHLTASMSRVALQKSASERAAKDYYKPRVTKPSRSVDAYDSYWESRKPPLKASLSLRKEPVATDVGDDLKDEIIRPSPSLLTMASSPHGSPDVLPPASPSNGPALLRGTYFSTQDDVDLYTDSEPRATYRRQDALRPDVWLLRNDAHSLYHKRSPPAKESALSKCQSCGLSCSSSLCQRCDSLLTCPPASKPSAFPSKASTHDSLAHGASLREKYPGQTQGLDRLPHLHSKSKPSTTPTSRCGFCNRPGATNTCTQCSKVSCDACLSAYHYDPCYKKSELHKFMPNNQLNYKSTQLSHLVYR | binds | binds |  |
| CYP51A1 (enzyme, Homo sapiens, UniProt Q16850-2 1-404, looked up, Endogenous protein found by proximity labelling/MS; also called Lanosterol 14-alpha demethylase) MVGKTFTYLLGSDAAALLFNSKNEDLNAEDVYSRLTTPVFGKGVAYDVPNPVFLEQKKMLKSGLNIAHFKQHVSIIEKETKEYFESWGESGEKNVFEALSELIILTASHCLHGKEIRSQLNEKVAQLYADLDGGFSHAAWLLPGWLPLPSFRRRDRAHREIKDIFYKAIQKRRQSQEKIDDILQTLLDATYKDGRPLTDDEVAGMLIGLLLAGQHTSSTTSAWMGFFLARDKTLQKKCYLEQKTVCGENLPPLTYDQLKDLNLLDRCIKETLRLRPPIMIMMRMARTPQTVAGYTIPPGHQVCVSPTVNQRLKDSWVERLDFNPDRYLQDNPASGEKFAYVPFGAGRHRCIGENFAYVQIKTIWSTMLRLYEFDLIDGYFPTVNYTTMIHTPENPVIRYKRRSK |  |  | binds |
| CYLD (enzyme, Homo sapiens, UniProt Q9NQC7-2 1-953, looked up, Endogenous protein in cell lysates; the isoform is the one matched by MS; also called Ubiquitin carboxyl-terminal hydrolase CYLD) MSSGLWSQEKVTSPYWEERIFYLLLQECSVTDKQTQKLLKVPKGSIGQYIQDRSVGHSRIPSAKGKKNQIGLKILEQPHAVLFVDEKDVVEINEKFTELLLAITNCEERFSLFKNRNRLSKGLQIDVGCPVKVQLRSGEEKFPGVVRFRGPLLAERTVSGIFFGVELLEEGRGQGFTDGVYQGKQLFQCDEDCGVFVALDKLELIEDDDTALESDYAGPGDTMQVELPPLEINSRVSLKVGETIESGTVIFCDVLPGKESLGYFVGVDMDNPIGNWDGRFDGVQLCSFACVESTILLHINDIIPESVTQERRPPKLAFMSRGVGDKGSSSHNKPKATGSTSDPGNRNRSELFYTLNGSSVDSQPQSKSKNTWYIDEVAEDPAKSLTEISTDFDRSSPPLQPPPVNSLTTENRFHSLPFSLTKMPNTNGSIGHSPLSLSAQSVMEELNTAPVQESPPLAMPPGNSHGLEVGSLAEVKENPPFYGVIRWIGQPPGLNEVLAGLELEDECAGCTDGTFRGTRYFTCALKKALFVKLKSCRPDSRFASLQPVSNQIERCNSLAFGGYLSEVVEENTPPKMEKEGLEIMIGKKKGIQGHYNSCYLDSTLFCLFAFSSVLDTVLLRPKEKNDVEYYSETQELLRTEIVNPLRIYGYVCATKIMKLRKILEKVEAASGFTSEEKDPEEFLNILFHHILRVEPLLKIRSAGQKVQDCYFYQIFMEKNEKVGVPTIQQLLEWSFINSNLKFAEAPSCLIIQMPRFGKDFKLFKKIFPSLELNITDLLEDTPRQCRICGGLAMYECRECYDDPDISAGKIKQFCKTCNTQVHLHPKRLNHKYNPVSLPKDLPDWDWRHGCIPCQNMELFAVLCIETSHYVAFVKYGKDDSAWLFFDSMADRDGGQNGFNIPQVTPCPEVGEYLKMSLEDLHSLDSRRIQGCARRLLCDAYMCMYQSPTMSLYK | binds | binds |  |
